This is an account of results in paper PMC4222909, “The Porphyromonas gingivalis Ferric Uptake Regulator Orthologue Binds Hemin and Regulates Hemin-Responsive Biofilm Development” (PLoS ONE, 2014).

Positions count from the first letter of the chain named. Names may count otherwise.

Broadly, the stoichiometry N is a count of units in the complex or per binding partner.

Data set [1] deals with T1, Zn(II)Har150 (Porphyromonas gingivalis ATCC 33277) (UniProt B2RKX7).
T1 sequence: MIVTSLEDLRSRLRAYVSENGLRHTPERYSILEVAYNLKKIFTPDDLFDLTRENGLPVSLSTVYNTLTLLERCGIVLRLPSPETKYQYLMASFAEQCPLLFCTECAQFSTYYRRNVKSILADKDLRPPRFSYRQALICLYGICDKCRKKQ
The data set can be described thus: EMSA. (In general: In EMSA bound probe runs differently from free probe, usually more slowly.)

The target of data set [2] is T1, Zn(II)Har150 (Porphyromonas gingivalis ATCC 33277). The data set is described as follows: competition.
Data set [3] concerns the molecule itself. The data set is described as follows: SEC. (In general: In gel filtration, larger molecules generally elute earlier.)

For the molecule “GGTGTTGATAACTCGGTCGCGCCTTGGTCGGCTTTCGTATAAGTGTCTGGAATGCAGTGGAATAGCGTTGTTTCCTTCGCTGTTTATATCTCAAGGTTATAACCATCTGAAAACAATATAGATACGATTCATCTGAATTATACTACACTTTTTGTCGATTGTTTTTTTACTCTTTTGTTTGAACCTTTGCTATCCCCAAAGGAGCAATGAACGACTGCTCTCAAAACGATATTTTTTTAG (double strand) [FAM-dnaA (PGN_0001) promoter]”, in data set [1], the binding entry was “binds”. Turning to “GGTGTTGATAACTCGGTCGCGCCTTGGTCGGCTTTCGTATAAGTGTCTGGAATGCAGTGGAATAGCGTTGTTTCCTTCGCTGTTTATATCTCAAGGTTATAACCATCTGAAAACAATATAGATACGATTCATCTGAATTATACTACACTTTTTGTCGATTGTTTTTTTACTCTTTTGTTTGAACCTTTGCTATCCCCAAAGGAGCAATGAACGACTGCTCTCAAAACGATATTTTTTTAG (double strand) [dnaA (PGN_0001) promoter 240 bp]”, the binding result in data set [1] and in data set [2] was “binds” throughout.

B1: Zn(II)Har, recombinant Porphyromonas gingivalis Har (heme associated regulator, Fur orthologue PGN_1503) (natural protein, Porphyromonas gingivalis ATCC 33277, UniProt B2RKX7 1-166, looked up)
chain: MIVTSLEDLRSRLRAYVSENGLRHTPERYSILEVAYNLKKIFTPDDLFDLTRENGLPVSLSTVYNTLTLLERCGIVLRLPSPETKYQYLMASFAEQCPLLFCTECAQFSTYYRRNVKSILADKDLRPPRFSYRQALICLYGICDKCRKKQSALKKAADKAAPKKKK
notes: Har (Fur family transcriptional regulator), P. gingivalis ATCC 33277, gene PGN_1503 (501 bp), full length; Factor Xa site (IEGR) immediately before the start of har; Measured mass of apo-Har 19157.46 Da fits the theoretical 19157.20 Da; also called PgHar; rHar; source: E. coli BL21(DE3), purified (GSTrap, on-column Factor Xa cleavage, cation exchange, size exclusion); not shown: GST, N-terminal, …
Consider B1, for which the “stoichiometry N” value in data set [3] is 2.

B2: Zn(II)C97A, recombinant P. gingivalis Har with Cys97 substituted with Ala (natural protein)
chain: B1 chain with C97A
notes: also called HarC97A; source: E. coli BL21(DE3), purified (GSTrap, on-column Factor Xa cleavage, cation exchange, size exclusion); not shown: GST, N-terminal, cleaved
On to B2, for which, in data set [3], the “stoichiometry N” value is 2.

B3: Zn(II)Har150, recombinant P. gingivalis Har truncated by 16 amino acids at the C-terminus (domain or fragment)
chain: T1 sequence
notes: source: E. coli BL21(DE3), purified (GSTrap, on-column Factor Xa cleavage, cation exchange, size exclusion); not shown: GST, N-terminal, cleaved
Consider B3, for which the “stoichiometry N” value in data set [3] was 2.
